T1: Human CD45RABC Antigen (Fragment of Human CD45RABC Isoform) (human, UniProt P08575 26-577)
T1 sequence: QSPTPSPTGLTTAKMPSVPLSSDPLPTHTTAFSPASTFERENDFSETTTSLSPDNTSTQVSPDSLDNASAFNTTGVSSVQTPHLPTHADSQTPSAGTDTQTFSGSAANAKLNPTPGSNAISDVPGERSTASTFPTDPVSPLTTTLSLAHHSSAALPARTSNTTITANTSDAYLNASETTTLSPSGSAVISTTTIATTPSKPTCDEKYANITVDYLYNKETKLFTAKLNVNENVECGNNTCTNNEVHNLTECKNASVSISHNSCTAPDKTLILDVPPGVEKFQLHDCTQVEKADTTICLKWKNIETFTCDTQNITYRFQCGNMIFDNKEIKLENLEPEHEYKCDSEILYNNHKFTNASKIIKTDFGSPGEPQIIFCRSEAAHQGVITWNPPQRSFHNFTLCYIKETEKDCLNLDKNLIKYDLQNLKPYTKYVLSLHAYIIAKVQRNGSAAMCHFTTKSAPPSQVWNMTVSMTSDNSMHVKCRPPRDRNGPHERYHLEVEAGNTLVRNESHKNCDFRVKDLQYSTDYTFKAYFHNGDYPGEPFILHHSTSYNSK

T2: cynomolgus CD45 RABC (cynomolgus, UniProt A0A2K5VQ76 26-1301)
T2 construct: also called cyno CD45RABC; cyno RABC
T2 sequence: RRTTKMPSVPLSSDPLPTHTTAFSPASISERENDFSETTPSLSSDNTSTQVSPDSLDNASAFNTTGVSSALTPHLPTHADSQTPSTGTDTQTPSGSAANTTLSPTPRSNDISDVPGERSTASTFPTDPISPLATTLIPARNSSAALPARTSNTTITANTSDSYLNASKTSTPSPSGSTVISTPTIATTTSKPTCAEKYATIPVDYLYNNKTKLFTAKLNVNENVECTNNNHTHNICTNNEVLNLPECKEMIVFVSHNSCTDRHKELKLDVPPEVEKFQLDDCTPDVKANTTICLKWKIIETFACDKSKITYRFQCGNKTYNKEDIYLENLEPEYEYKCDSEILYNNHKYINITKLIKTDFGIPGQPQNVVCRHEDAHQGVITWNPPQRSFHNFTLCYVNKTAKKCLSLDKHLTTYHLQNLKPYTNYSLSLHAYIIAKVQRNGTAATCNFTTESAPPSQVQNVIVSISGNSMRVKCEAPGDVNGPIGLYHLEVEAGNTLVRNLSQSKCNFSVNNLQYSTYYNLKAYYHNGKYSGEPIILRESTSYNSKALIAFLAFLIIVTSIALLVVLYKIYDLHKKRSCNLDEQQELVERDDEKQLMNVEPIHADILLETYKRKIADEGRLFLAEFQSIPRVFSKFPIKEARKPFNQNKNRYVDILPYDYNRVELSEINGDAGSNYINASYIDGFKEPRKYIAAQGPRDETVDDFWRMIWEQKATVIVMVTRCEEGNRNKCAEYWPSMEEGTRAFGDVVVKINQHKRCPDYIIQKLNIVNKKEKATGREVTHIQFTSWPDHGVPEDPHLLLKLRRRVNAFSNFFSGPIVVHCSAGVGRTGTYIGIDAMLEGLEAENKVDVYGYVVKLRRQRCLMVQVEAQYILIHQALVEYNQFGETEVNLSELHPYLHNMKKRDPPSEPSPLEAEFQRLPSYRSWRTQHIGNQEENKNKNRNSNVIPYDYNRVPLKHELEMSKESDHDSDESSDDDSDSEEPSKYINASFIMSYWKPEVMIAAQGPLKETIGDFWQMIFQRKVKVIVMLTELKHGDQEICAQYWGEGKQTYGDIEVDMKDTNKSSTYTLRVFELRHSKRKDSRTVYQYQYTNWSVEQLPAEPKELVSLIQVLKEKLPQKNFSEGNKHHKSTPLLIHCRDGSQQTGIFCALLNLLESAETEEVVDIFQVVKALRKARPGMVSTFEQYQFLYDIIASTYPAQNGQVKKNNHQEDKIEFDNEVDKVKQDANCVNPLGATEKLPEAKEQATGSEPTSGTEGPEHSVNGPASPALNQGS

T3: Rhesus CD45RABC (rhesus, UniProt A0A1D5R142 26-1310)
T3 sequence: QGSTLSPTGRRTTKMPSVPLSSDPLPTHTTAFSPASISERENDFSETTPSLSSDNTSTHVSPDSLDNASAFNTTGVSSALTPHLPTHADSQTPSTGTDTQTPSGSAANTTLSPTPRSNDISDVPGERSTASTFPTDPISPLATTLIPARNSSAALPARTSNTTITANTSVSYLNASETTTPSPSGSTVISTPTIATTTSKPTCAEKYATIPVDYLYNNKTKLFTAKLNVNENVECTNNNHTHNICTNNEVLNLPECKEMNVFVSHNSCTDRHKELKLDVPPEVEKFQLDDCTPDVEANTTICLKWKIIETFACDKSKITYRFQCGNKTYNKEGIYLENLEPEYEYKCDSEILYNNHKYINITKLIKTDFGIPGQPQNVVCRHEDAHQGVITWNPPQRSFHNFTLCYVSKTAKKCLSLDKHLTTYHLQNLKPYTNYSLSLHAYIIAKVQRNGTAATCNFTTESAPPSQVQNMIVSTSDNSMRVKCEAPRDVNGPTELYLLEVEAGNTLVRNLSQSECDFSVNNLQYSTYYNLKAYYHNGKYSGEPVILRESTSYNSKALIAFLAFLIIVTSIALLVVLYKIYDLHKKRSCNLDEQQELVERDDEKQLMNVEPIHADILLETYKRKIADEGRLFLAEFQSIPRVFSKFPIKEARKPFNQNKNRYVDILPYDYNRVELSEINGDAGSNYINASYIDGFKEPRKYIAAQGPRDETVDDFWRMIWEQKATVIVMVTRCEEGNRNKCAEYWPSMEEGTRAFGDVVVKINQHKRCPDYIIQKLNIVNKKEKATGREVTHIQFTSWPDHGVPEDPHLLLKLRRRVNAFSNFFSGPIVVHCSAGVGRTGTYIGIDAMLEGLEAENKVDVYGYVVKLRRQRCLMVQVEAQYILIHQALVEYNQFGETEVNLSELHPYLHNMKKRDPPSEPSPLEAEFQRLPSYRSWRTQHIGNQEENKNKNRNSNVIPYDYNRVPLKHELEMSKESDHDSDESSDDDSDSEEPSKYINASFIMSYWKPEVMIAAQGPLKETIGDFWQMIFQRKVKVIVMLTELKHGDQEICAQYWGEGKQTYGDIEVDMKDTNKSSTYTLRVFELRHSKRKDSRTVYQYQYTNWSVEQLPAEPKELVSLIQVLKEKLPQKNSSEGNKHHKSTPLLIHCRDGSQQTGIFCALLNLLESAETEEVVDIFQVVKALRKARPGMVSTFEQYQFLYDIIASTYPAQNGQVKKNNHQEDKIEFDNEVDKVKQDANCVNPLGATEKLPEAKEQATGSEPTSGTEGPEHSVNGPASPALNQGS

B1: CD45-AM (chimeric AbA as IgG1 conjugated to amatoxin), Example 2 (antibody, V domains shown)
VH: EVQLVESGGDRVQPGRSLTLSCVTSGFTFNNYWMTWIRQVPGKGLEWVASISSSGGSIYYPDSVKGRFTISRDNAKNTLYLQMNSLRSEDTATYYCARDERWAGAMDAWGQGTSVTVSS
VL: DIQMTQSPPVLSASVGDRVTLSCKASQNINKNLDWYQQKHGEAPKLLIYETNNLQTGIPSRFSGSGSGTDYTLTISSLQPEDVATYYCYQHNSRFTFGSGTKLEIK
modifications: here or on the partner: amatoxin (AM) payload conjugated to the antibody; site and drug to antibody ratio not stated in Example 2
B2: AbA chimera (chimeric Antibody A, human IgG1) (antibody, V domains shown)
VH: EVQLVESGGDRVQPGRSLTLSCVTSGFTFNNYWMTWIRQVPGKGLEWVASISSSGGSIYYPDSVKGRFTISRDNAKNTLYLQMNSLRSEDTATYYCARDERWAGAMDAWGQGTSVTVSS
VL: DIQMTQSPPVLSASVGDRVTLSCKASQNINKNLDWYQQKHGEAPKLLIYETNNLQTGIPSRFSGSGSGTDYTLTISSLQPEDVATYYCYQHNSRFTFGSGTKLEIK
notes: also called chimeric AbA
B3: CD45-AM (antibody AbB-amatoxin), Example 4 (antibody, V domains shown)
VH: EVQLVESGGDLVQPGRSLKLSCIASGFTFTNFWMTWIRQVSGKGLEWVASISSSGGSIYYPDSVKDRFTISRDNAKNTLYLQMNSLRSEDTATYYCVKLHYYSGGGDAWGQGTSVTVSS
VL: DIQMTQSPSFLSASVGDRVTINCKASQNINKYLDWYQQKHGEAPKLLIHYTNNLHTGIPSRFSGSGSGTDYTLTISSLQPEDVATYFCLQHSSRWTFGGGTKLELK
modifications: here or on the partner: amanitin conjugated (interchain), drug to antibody ratio (DAR) 4
B4: AbB chimera (chimeric Antibody B, human IgG1) (antibody, V domains shown)
VH: EVQLVESGGDLVQPGRSLKLSCIASGFTFTNFWMTWIRQVSGKGLEWVASISSSGGSIYYPDSVKDRFTISRDNAKNTLYLQMNSLRSEDTATYYCVKLHYYSGGGDAWGQGTSVTVSS
VL: DIQMTQSPSFLSASVGDRVTINCKASQNINKYLDWYQQKHGEAPKLLIHYTNNLHTGIPSRFSGSGSGTDYTLTISSLQPEDVATYFCLQHSSRWTFGGGTKLELK
notes: also called chimeric AbB
B5: AbC chimera (chimeric Antibody C, human IgG1) (antibody, V domains shown)
VH: EVQLVESGGDLVQPGRSLKLSCVASGFTFNNYWMTWIRQVPGKGLEWVASISSSGGSIYYPDSVKDRFTISRDNAKNTLFLQMNSLRSEDTATYYCARLYYYSGGGDAWGQGTSVTVSS
VL: DIQMTQSPSFLSASVGDRVTIICKASQDINKYLDWYQQKLGEAPKLLIYNTNNLHTGIPSRFSGSGSGTDYTLTISSLQPEDVATYFCLQHISRWTFGGGTKLELK
notes: also called chimeric AbC

How the values were obtained:
[1] = target: human CD45 on human cells (PBMC, CD34+CD90+ bone marrow HSCs, cells expressing CD45) (human), P08575; assay: cell-based or functional assay
[2] = target: T1, Human CD45RABC Antigen (Fragment of …); assay: Octet (BLI), monovalent binding
cynomolgus CD45 RABC [3] = target: T2, cynomolgus CD45 RABC; assay: Octet (BLI), monovalent binding
Rhesus CD45RABC [4] = target: T3, Rhesus CD45RABC; assay: Octet (BLI), monovalent binding
cynomolgus CD45 RABC [5] = target: T2, cynomolgus CD45 RABC; assay: Octet (BLI), monovalent binding; KD on cyno against KD on human CD45 RABC
Rhesus CD45RABC [6] = target: T3, Rhesus CD45RABC; assay: Octet (BLI), monovalent binding; KD on rhesus against KD on human CD45 RABC

Row | Binder | in vitro killing of PBMC immune cells (IC50) [1] | in vitro killing of primary human bone marrow CD34+CD90+ HSCs (IC50) [1] | Kd [2] | Kd (cynomolgus CD45 RABC [3]) | Kd (Rhesus CD45RABC [4]) | Fold cyno to Hu (cynomolgus CD45 RABC [5]) | Fold Rhesus to Hu (Rhesus CD45RABC [6]) | in vitro killing of human PBMCs, 4 days, Celltiter Glo [1] | in vitro killing of primary human CD34+CD90+ HSCs, 5 days, flow cytometry counts [1]
1 | B1 | 0.055 nM | 0.067 nM |  |  |  |  |  |  | 
2 | B2 |  |  | 2.34 nM | 9.33 nM | 12.3 nM | 4 fold | 5 fold |  | 
3 | B3 |  |  |  |  |  |  |  | 614 pM | 68 pM
4 | B4 |  |  | 2.84 nM | 14.5 nM | 15.8 nM | 5 fold | 6 fold |  | 
5 | B5 |  |  | 7.54 nM | 62.2 nM | 63.5 nM | 8 fold | 8 fold |  | 

— patent publication US20210371524A1 (VOR BIOPHARMA, published 2021)
